Test results: patent US7276480B1, “Prevention and reduction of blood loss” (Dyax Corp., priority 2005, dated 2007)
No end group written: not given here.

Target: human plasma kallikrein (Homo sapiens, UniProt P03952)
Experiment: Affinity (Ki,app) for plasma proteases, Table 1
Type: biochemical

Chain of human plasma kallikrein (P03952 391-638 limits assumed): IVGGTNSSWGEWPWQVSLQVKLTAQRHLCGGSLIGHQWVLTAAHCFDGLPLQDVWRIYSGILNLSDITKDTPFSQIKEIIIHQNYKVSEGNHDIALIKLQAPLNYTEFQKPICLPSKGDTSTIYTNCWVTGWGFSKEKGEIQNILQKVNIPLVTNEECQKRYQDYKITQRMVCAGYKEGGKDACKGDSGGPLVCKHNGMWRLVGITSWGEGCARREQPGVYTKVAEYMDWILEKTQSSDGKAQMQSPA
Chain of human plasma kallikrein (P03952 20-390 limits assumed): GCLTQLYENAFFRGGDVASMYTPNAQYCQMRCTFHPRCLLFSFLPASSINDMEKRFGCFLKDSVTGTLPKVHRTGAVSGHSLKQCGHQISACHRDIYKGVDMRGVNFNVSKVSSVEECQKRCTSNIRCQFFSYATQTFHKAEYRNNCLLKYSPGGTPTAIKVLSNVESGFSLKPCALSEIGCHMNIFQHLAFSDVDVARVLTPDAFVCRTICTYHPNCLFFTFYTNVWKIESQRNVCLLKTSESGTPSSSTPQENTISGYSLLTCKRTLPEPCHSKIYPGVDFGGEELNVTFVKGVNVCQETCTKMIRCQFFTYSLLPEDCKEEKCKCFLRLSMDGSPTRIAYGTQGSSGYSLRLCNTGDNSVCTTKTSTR

Row | concentration in the plasma required to inhibit 99% of the kallikrein at 1 nM (kallikrein 1 nM, 99% inhibition) | Ki (read-out: Ki,app, human plasma kallikrein) [nM] | Substance | specificity among kallikrein and eleven other plasma proteases (from Table 1) | affinity (Ki,app) for kallikrein relative to the affinity of aprotinin (ratio versus aprotinin) [times higher]
1 | – | – | PEP-1: non-naturally occurring KI polypeptide, 60-amino acid sequence of SEQ ID NO:2, recombinant from Pichia pastoris (EAMHSFCAFKADDGPCRAAHPRWFFNIFTRQCEEFIYGGCEGNQNRFESLEECKKMCTRD; ends and bridges not checked; cysteine pairing not given here) | highly specific for human plasma kallikrein | 1000
2 | at least 3 mu.M | 30 | aprotinin | – | –
